Source: article PMC3797041 (PLoS ONE, 2013)

Target: T1, Staphylococcal enterotoxin B (Staphylococcus aureus, strain , UniProt P01552)
T1 construct: source: bought: Toxin Technologies
Test: SPR
Settings: both partners purified

T1 sequence (P01552 28-266): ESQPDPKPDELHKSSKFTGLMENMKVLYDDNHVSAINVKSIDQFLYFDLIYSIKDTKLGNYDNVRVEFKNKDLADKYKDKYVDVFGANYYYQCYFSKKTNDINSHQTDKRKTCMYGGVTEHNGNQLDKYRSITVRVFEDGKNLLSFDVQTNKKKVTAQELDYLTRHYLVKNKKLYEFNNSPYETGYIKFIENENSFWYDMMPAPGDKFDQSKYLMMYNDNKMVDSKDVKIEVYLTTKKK

Binder | binding result | Kd
hybrid DDA (VHH) VHH: EVQLQASGGGLVQPGGSLRLACQYSGREGTTTVGWFRQSPGKEREFVAAIRWTDSRTPHTDSRFTTSSDNFKKTAYLQMNGLKPEDTALYYCTEDLKMQVAAYMNQRSVDYWSQGTQVTVSS | no binding | 
hybrid AAD (VHH) VHH: EVQLVESGGGLVQAGDSLRLSCTASGRTFSRAVMGWFRQAPGKEREFVAAISAAPGTAYYAFYADSVRGRFSISADSAKNTVYLQMNSLKPEDTAVYYCAADTWNSVVTGTAADWGQGTQVTVSS |  | 12 nM
hybrid construct D1A3 (VHH) VHH: EVQLQASGGGLVQPGGSLRLACQYSGRTFSRAVMGWFRQSPGKEREFVAAISAAPGTAYYAFYADSVRGRFTTSSDNFKKTAYLQMNGLKPEDTALYYCTEDLKMQVAAYMNQRSVDYWSQGTQVTVSS |  | 0.56 nM
hybrid antibody C8A3 (VHH) VHH: EVQLQASGGGLVQGGDSLRLSCAASGRTFSRAVMGWFRQAPGKEREFVSAISAAPGTAYYAFYADSVRGRFTISRDNAKNAVYLQMNSLKPEDTAVYYCAVDLKMQVAAYMNQRSVDYWGQGTQVTVSS |  | 2.7 nM
hybrid construct A3D1 (VHH) VHH: EVQLVESGGGLVQAGDSLRLSCTASGREGTTTVGWFRQAPGKEREFVAAIRWTDSRTPHTDSRFSISADSAKNTVYLQMNSLKPEDTAVYYCAADTWNSVVTGTAADWGQGTQVTVSS | no binding | 
hybrid DAD (VHH) VHH: EVQLQASGGGLVQPGGSLRLACQYSGREGTTTVGWFRQSPGKEREFVAAISAAPGTAYYAFYADSVRGRFTTSSDNFKKTAYLQMNGLKPEDTALYYCTEDTWNSVVTGTAADWSQGTQVTVSS |  | 20 nM
hybrid antibody A3C8 (VHH) VHH: EVQLVESGGGLVQAGDSLRLSCTASGRTLGDYGVAWFRQAPGKEREFVSVISRSTIITDYADSVRGRFSISADSAKNTVYLQMNSLKPEDTAVYYCAVIANPVYATSRNSDDYGHWGQGTQVTVSS | no binding | 
hybrid ADD (VHH) VHH: EVQLQASGGGLVQPGGSLRLACQYSGRTFSRAVMGWFRQSPGKEREFVAAIRWTDSRTPHTDSRFTTSSDNFKKTAYLQMNGLKPEDTALYYCTEDTWNSVVTGTAADWSQGTQVTVSS | no binding | 
